In EP3244212A1:

Key:
[1] = molecular target: serum sIgE of the patients of the ELISA inhibition study (Example 3) (human); test: ELISA inhibition: serum pre-incubated with soluble Ara h 2 (0.1, 1, 10 ug/ml); immobilised competitor Ara h 7.0201
[2] = molecular target: serum sIgE of the patients of the ELISA inhibition study (Example 3) (human); test: ELISA inhibition: serum pre-incubated with soluble Ara h 2 (0.1, 1, 10 ug/ml); immobilised competitor Ara h 6

- % inhibition (median over sera) [1]: 16%
- % inhibition (median over sera) [2]: 43%
B1: Ara h 2 isotype 2.0201, recombinant His6 fusion protein (protein)
chain: MSHHHHHHIEGRTMRQQWELQGDRRCQSQLERANLRPCEQHLMQKIQRDEDSYGRDPYSPSQDPYSPSQDPDRRDPYSPSPYDRRGAGSSQHQERCCNELNEFENNQRCMCEALQQIMENQSDRLQGRQQEQQFKRELRNLPQQCGLRAPQRCDLEVESGGRDRY
